According to US20230103563A1 (Sanofi, published 2023):
Blank lines part the entries; values can stand above or below the binder they belong to.

Key:
[1] = molecular target: T1, human IL4 (IL004, Millipore) (human, UniProt P05112 25-153); assay: SPR (Biacore), variant captured with Fab-capture kit, IL4 as analyte
T1 construct: Bought protein, used as analyte in SPR; also called interleukin IL4
T1 sequence (looked up): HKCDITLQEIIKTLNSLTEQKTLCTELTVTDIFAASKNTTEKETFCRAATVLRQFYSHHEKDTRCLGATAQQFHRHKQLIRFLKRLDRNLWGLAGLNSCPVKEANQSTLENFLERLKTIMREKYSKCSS
Description: (§1) Binding of antigens to the antibody constructs was measured using surface plasmon resonance (SPR) on a BIAcore 3000 instrument (GE Healthcare) with HBS-EP buffer (GE Healthcare). As antigens human IL4 (IL004, Millipore) and human IL13 (IL012, Millipore) were used. The capture antibody (human antibody capture kit, His capture kit, Fab capture kit, GE Life Sciences) was immobilized via primary amine groups (11000 RU) on a research grade CMS chip (GE Life Sciences) using standard procedures. […] The antigens human IL4 and human IL13 were used as analytes and injected for 240 sec with a dissociation time of 300 sec at a flow rate of 30 μL/min. IL4 and IL13 were used in a dilution series of 0.1 nM to 3 nM and 0.8 nM to 25 nM, respectively. Chip surfaces were regenerated with 2 min injects of the regeneration buffer provided with the capture kit. Sensorgrams were double referenced with a blank chip surface and HBS-EP buffer blanks. Recombinant human neonatal Fc-receptor (FcRn) protein was immobilized via primary amine groups (200 RU) in the sample flow cell compartment of a research grade CMS chip (GE Life Sciences) using standard procedures. The reference flow cell compartment was activated and deactivated without FcRn immobilization to generate a blank chip surface. For the analysis an assay buffer with pH 6.0 was used (150 mM NaCl, 20 mM Na-phosphate, 0.05% surfactant P20, pH6.0). The antibody was used as analyte at 800 nM dilution in assay buffer and injected over reference and sample flow cells for 240 sec with a dissociation time of 300 sec at a flow rate of 30 μL/min. Chip surfaces were regenerated with 2 min injects of HBS-EP buffer at 30 μl/min. Sensorgrams were double referenced with a the blank chip surface and HBS-EP buffer blanks. All data analysis was done using the BIAevaluation software v4.1.

[2] = molecular target: T1, human IL4 (IL004, Millipore); assay: SPR (Biacore), variant captured with His-capture kit, IL4 as analyte
Description: as §1

[3] = molecular target: T1, human IL4 (IL004, Millipore); assay: SPR (Biacore 3000), construct captured, IL4 as analyte; summary table
Description: as §1

[4] = molecular target: T1, human IL4 (IL004, Millipore); assay: SPR (Biacore), variant captured with human antibody capture kit, IL4 as analyte
Description: as §1

Ka [1]: 5.73e+10 M⁻¹
Kd [1]: 17.5 pM
koff [1]: 0.000259 s⁻¹
kon [1]: 1.48e+07 M⁻¹ s⁻¹
Ka [2]: 3.33e+10 M⁻¹
Kd [2]: 30 pM
koff [2]: 0.000426 s⁻¹
kon [2]: 1.42e+07 M⁻¹ s⁻¹
Kd [3]: 30 pM
B1: protein variant (2), DVD-Fab Split CH2 (anti-IL4/anti-IL13) (bispecific antibody, IgG1)
chain 1: DIVLTQSPASLAVSLGQRATISCRASESVDSYGQSYMHWYQQKAGQPPKLLIYLASNLESGVPARFSGSGSRTDFTLTIDPVQAEDAATYYCQQNAEDSRTFGGGTKLEIKGGGGSGGGGSDIQMTQSPASLSVSVGDTITLTCHASQNIDVWLSWFQQKPGNIPKLLIYKASNLHTGVPSRFSGSGSGTGFTLTISSLQPEDIATYYCQQAHSYPFTFGGGTKLEIKRTVAAPSVFIFPPSDEQLKSGTASVVCLLNNFYPREAKVQWKVDNALQSGNSQESVTEQDSKDSTYSLSSTLTLSKADYEKHKVYACEVTHQGLSSPVTKSFNRGECGGPSVFLFPPKPKDTLMISRTPEVTCVVVDVSHEDPEVKFNWYVDGVEVHN
chain 2: EVQLKESGPGLVAPGGSLSITCTVSGFSLTDSSINWVRQPPGKGLEWLGMIWGDGRIDYADALKSRLSISKDSSKSQVFLEMTSLRTDDTATYYCARDGYFPYAMDFWGQGTSVTVSSGGGGSGGGGSQVQLQQSGPELVKPGASVKISCKASGYSFTSYWIHWIKQRPGQGLEWIGMIDPSDGETRLNQRFQGRATLTVDESTSTAYMQLRSPTSEDSAVYYCTRLKEYGNYDSFYFDVWGAGTLVTVSSASTKGPSVFPLAPSSKSTSGGTAALGCLVKDYFPEPVTVSWNSGALTSGVHTFPAVLQSSGLYSLSSVVTVPSSSLGTQTYICNVNHKPSNTKVDKKVEPKSCDKGGGAKTKPREEQYNSTYRVVSVLTVLHQDWLNGKEYKCKVSNKALPAPIEKTISKAKGQPREHHHHHH
notes: Fab-like format with IgG1 split CH2 domain

Kd [3]: 1.3 pM
Kd [4]: 1.3 pM
koff [4]: 8.91e-05 s⁻¹
kon [4]: 6.84e+07 M⁻¹ s⁻¹
B2: protein variant (11), Split CH2 bivalent bispecific antibody (bispecific antibody, human IgG4 S228P, kappa)
heavy: EVQLKESGPGLVAPGGSLSITCTVSGFSLTDSSINWVRQPPGKGLEWLGMIWGDGRIDYADALKSRLSISKDSSKSQVFLEMTSLRTDDTATYYCARDGYFPYAMDFWGQGTSVTVSSASTKGPSVFPLAPCSRSTSESTAALGCLVKDYFPEPVTVSWNSGALTSGVHTFPAVLQSSGLYSLSSVVTVPSSSLGTKTYTCNVDHKPSNTKVDKRVESKYGPPCPPCPAPEFEGGPSVFLFPPKPKDTLMISRTPEVTCVVVDVSQEDPEVQFNWYVDGVEVHNAKTKPREEQFNSTYRVVSVLTVLHQDWLNGKEYKCKVSNKGLPSSIEKTISKAKGQPREPQVCTLPPSRDELTKNQVSLSCAVKGFYPSDIAVEWESNGQPENNYKTTPPVLDSDGSFFLVSKLTVDKSRWQQGNVFSCSVMHEALHNRFTQKSLSLSPG
light: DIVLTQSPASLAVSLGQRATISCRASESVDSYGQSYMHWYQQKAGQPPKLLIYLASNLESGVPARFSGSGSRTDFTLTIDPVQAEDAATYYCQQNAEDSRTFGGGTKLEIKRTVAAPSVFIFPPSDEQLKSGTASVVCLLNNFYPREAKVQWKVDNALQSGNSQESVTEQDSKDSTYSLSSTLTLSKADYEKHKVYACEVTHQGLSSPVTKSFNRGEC
chain 1: QVQLQQSGPELVKPGASVKISCKASGYSFTSYWIHWIKQRPGQGLEWIGMIDPSDGETRLNQRFQGRATLTVDESTSTAYMQLRSPTSEDSAVYYCTRLKEYGNYDSFYFDVWGAGTLVTVSSGGGGGSGGGGGSAKTKPREEQYNSTYRVVSVLTVLHQDWLNGKEYKCKVSNKALPAPIEKTISKAKGQPREGGGSGSAESKYGPPCPPCPAPEFEGGPSVFLFPPKPKDTLMISRTPEVTCVVVDVSQEDPEVQFNWYVDGVEVHNAKTKPREEQFNSTYRVVSVLTVLHQDWLNGKEYKCKVSNKGLPSSIEKTISKAKGQPREPQVYTLPPCRDELTKNQVSLWCLVKGFYPSDIAVEWESNGQPENNYKTTPPVLDSDGSFFLYSKLTVDKSRWQQGNVFSCSVMHEALHNHYTQKSLSLSPG
chain 2: DIQMTQSPASLSVSVGDTITLTCHASQNIDVWLSWFQQKPGNIPKLLIYKASNLHTGVPSRFSGSGSGTGFTLTISSLQPEDIATYYCQQAHSYPFTFGGGTKLEIKGGGGPSVFLFPPKPKDTLMISRTPEVTCVVVDVSHEDPEVKFNWYVDGVEVHN
notes: Four chains; on one arm CH1 and CL are replaced by the split CH2 domain; heavy chains heterodimerize by knob-into-hole mutations

Kd [3]: 0.922 pM
Kd [4]: 0.922 pM
B3: protein variant (12), Split CH2 bivalent bispecific antibody (bispecific antibody, human IgG4 S228P, kappa)
heavy: B2 heavy
light: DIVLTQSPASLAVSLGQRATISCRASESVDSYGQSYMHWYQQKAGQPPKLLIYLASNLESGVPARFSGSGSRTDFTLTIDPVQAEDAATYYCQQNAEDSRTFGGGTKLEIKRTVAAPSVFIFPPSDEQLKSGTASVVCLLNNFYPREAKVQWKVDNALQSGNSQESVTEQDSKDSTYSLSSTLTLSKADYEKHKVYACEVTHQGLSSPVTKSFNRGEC
chain 1: DIQMTQSPASLSVSVGDTITLTCHASQNIDVWLSWFQQKPGNIPKLLIYKASNLHTGVPSRFSGSGSGTGFTLTISSLQPEDIATYYCQQAHSYPFTFGGGTKLEIKGGGGGSGGGGGSAKTKPREEQYNSTYRVVSVLTVLHQDWLNGKEYKCKVSNKALPAPIEKTISKAKGQPREGGGSGSAESKYGPPCPPCPAPEFEGGPSVFLFPPKPKDTLMISRTPEVTCVVVDVSQEDPEVQFNWYVDGVEVHNAKTKPREEQFNSTYRVVSVLTVLHQDWLNGKEYKCKVSNKGLPSSIEKTISKAKGQPREPQVYTLPPCRDELTKNQVSLWCLVKGFYPSDIAVEWESNGQPENNYKTTPPVLDSDGSFFLYSKLTVDKSRWQQGNVFSCSVMHEALHNHYTQKSLSLSPG
chain 2: QVQLQQSGPELVKPGASVKISCKASGYSFTSYWIHWIKQRPGQGLEWIGMIDPSDGETRLNQRFQGRATLTVDESTSTAYMQLRSPTSEDSAVYYCTRLKEYGNYDSFYFDVWGAGTLVTVSSGGGGPSVFLFPPKPKDTLMISRTPEVTCVVVDVSHEDPEVKFNWYVDGVEVHN
notes: as for B2

Ka [1]: 1.83e+11 M⁻¹
Kd [1]: 5.48 pM
koff [1]: 0.000452 s⁻¹
kon [1]: 8.26e+07 M⁻¹ s⁻¹
Kd [3]: 5.48 pM
B4: protein variant (3), CODV-Fab Split CH2 (anti-IL4/anti-IL13) (bispecific antibody, IgG1)
chain 1: DIVLTQSPASLAVSLGQRATISCRASESVDSYGQSYMHWYQQKAGQPPKLLIYLASNLESGVPARFSGSGSRTDFTLTIDPVQAEDAATYYCQQNAEDSRTFGGGTKLEIKGQPKAAPSDIQMTQSPASLSVSVGDTITLTCHASQNIDVWLSWFQQKPGNIPKLLIYKASNLHTGVPSRFSGSGSGTGFTLTISSLQPEDIATYYCQQAHSYPFTFGGGTKLEIKTKGPSVFRTVAAPSVFIFPPSDEQLKSGTASVVCLLNNFYPREAKVQWKVDNALQSGNSQESVTEQDSKDSTYSLSSTLTLSKADYEKHKVYACEVTHQGLSSPVTKSFNRGECGGPSVFLFPPKPKDTLMISRTPEVTCVVVDVSHEDPEVKFNWYVDGVEVHN
chain 2: QVQLQQSGPELVKPGASVKISCKASGYSFTSYWIHWIKQRPGQGLEWIGMIDPSDGETRLNQRFQGRATLTVDESTSTAYMQLRSPTSEDSAVYYCTRLKEYGNYDSFYFDVWGAGTLVTVSSSEVQLKESGPGLVAPGGSLSITCTVSGFSLTDSSINWVRQPPGKGLEWLGMIWGDGRIDYADALKSRLSISKDSSKSQVFLEMTSLRTDDTATYYCARDGYFPYAMDFWGQGTSVTVSSASTKGPSVFPLAPSSKSTSGGTAALGCLVKDYFPEPVTVSWNSGALTSGVHTFPAVLQSSGLYSLSSVVTVPSSSLGTQTYICNVNHKPSNTKVDKKVEPKSCDKGGGAKTKPREEQYNSTYRVVSVLTVLHQDWLNGKEYKCKVSNKALPAPIEKTISKAKGQPREHHHHHH
notes: Fab-like cross-over format with IgG1 split CH2 domain
